The supplement of paper PMC7877785
± gives the uncertainty stated by the source.

Experiment: self-splicing fitness, log relative to wild type (ln ratio); higher = more splicing; Tetrahymena group I intron in knt gene, E. coli kanamycin selection, DiMSum; sequences stand for … in CUCUCU…GGAGGGAAAAGUUAUCAGGCAUGCACCUGGUAGCUAGUCUUUAAACCAAUAGAUUGCAUCGGUUUAAAAGGCAAGACCGUCAAAUUGCGGGAAAGGGGUCAACAGCCGUUCAGUACCAAGUCUCAGGGGAAACUUUGAGAUGGCCUUGCAAAGGGUAUGGUAAUAAGCUGACGGACAUGGUCCUAACCACGCAGCCAAGUCCUAAGUCAACAGAUCUUCUGUUGAUAUGGAUGCAGUUCACAGACUAAAUGUCGGUCGGGGAAGAUGUAUUCUUCUCAUAAGAUAUAGUCGGACCUCUCCUUAAUGGGAGCUAGCGGAUGAAGUGAUGCAACACUGGAGCCGCUGGGAACUAAUUUGUAUGCGAAAGUAUAUUGAUUAGUUUUGGAGUACUCGUGGUCG
Procedure, shortened: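 DiMSum derived fitness as the error-weighted combination of fold changes across replicates, kanamycin versus no kanamycin, normalised to wild type. E. coli BL21(DE3) held the library, which randomised all eight P1ex-region intron nucleotides within the knt kanamycin-resistance gene on pET-22b(+). Six replicate transformations grew overnight at 37°C or 30°C on LB agar with or without 25 μg/mL kanamycin, also containing 100 μg/mL carbenicillin, 50 μM IPTG and 0.2% rhamnose, and pooled colonies were amplicon-sequenced on an Illumina HiSeq 2500.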

| Sequence | self-splicing fitness (ln) (30 °C) | self-splicing fitness (ln) (37 °C) |
| --- | --- | --- |
| CUCAAGCAAUAUUACGAUUA | -3.59 ± 0.47 | -2.37 ± 0.23 |
| CCCCAGCAAUAUUACGAUGU | -4.53 ± 0.2 | -3.11 ± 0.17 |
| CUAAAGCAAUAUUACGACGU | -3.33 ± 0.28 | -0.435 ± 0.19 |
| CCCGAGCAAUAUUACGUCAC | -2.9 ± 0.37 | -2.27 ± 0.49 |
| CUCUAGCAAUAUUACGUGUA | -3.62 ± 0.21 | -4.02 ± 0.27 |
| UAACAGCAAUAUUACGUCCG | -0.0665 ± 0.086 | 0.0833 ± 0.12 |
| ACGCAGCAAUAUUACGGUGA | -1.39 ± 0.05 | 0.18 ± 0.063 |
| CCAUAGCAAUAUUACGGUGU | -4.24 ± 0.17 | -2.58 ± 0.15 |
| UACUAGCAAUAUUACGUUGG | -2.61 ± 0.14 | -0.807 ± 0.15 |
| UACGAGCAAUAUUACGUAGU | -3.39 ± 0.32 | -2.95 ± 0.33 |
| AUAUAGCAAUAUUACGCAAG | -2.34 ± 0.22 | -0.955 ± 0.21 |
| UGGAAGCAAUAUUACGACCG | -0.874 ± 0.13 | -0.818 ± 0.17 |
| AAAGAGCAAUAUUACGUUAU | -3.71 ± 0.25 | -2.49 ± 0.23 |
| AAUUAGCAAUAUUACGCGCG | -1.62 ± 0.17 | -0.951 ± 0.18 |
| CGUGAGCAAUAUUACGGAAU |  | -2.84 ± 0.38 |
| CACGAGCAAUAUUACGUAGA | -2.34 ± 0.095 | -3.42 ± 0.29 |
| CCACAGCAAUAUUACGAGAU | -3.37 ± 0.14 | -1.65 ± 0.14 |
| UCGUAGCAAUAUUACGCUCC | -2.47 ± 0.25 |  |
| CCACAGCAAUAUUACGAUGC | -3.7 ± 0.17 | -2.66 ± 0.21 |

| Sequence | self-splicing fitness (ln) (30 °C) | self-splicing fitness (ln) (37 °C) |
| --- | --- | --- |
| GAUCAGCAAUAUUACGCCCA | -0.563 ± 0.2 | -0.558 ± 0.28 |
| UCCUAGCAAUAUUACGGAUG | -4.25 ± 0.34 | -2.67 ± 0.2 |
| UCUUAGCAAUAUUACGCGCG | -3.05 ± 0.25 | -1.76 ± 0.17 |
| AAUAAGCAAUAUUACGAAAA | -2.98 ± 0.28 | -1.76 ± 0.2 |
| UAACAGCAAUAUUACGCUGC | -2.45 ± 0.3 | -1.92 ± 0.28 |
| CAACAGCAAUAUUACGCGAG | -2.29 ± 0.089 | -0.359 ± 0.066 |
| UGUGAGCAAUAUUACGUAGC | -4.22 ± 0.42 | -1.65 ± 0.29 |
| AAAUAGCAAUAUUACGCUAG | -1.55 ± 0.13 | -1 ± 0.15 |
| CCCCAGCAAUAUUACGGGGA | -3.15 ± 0.14 | -3 ± 0.15 |
| CGUUAGCAAUAUUACGUUUC | -3.28 ± 0.2 | -2.19 ± 0.21 |
| ACAGAGCAAUAUUACGGUGA | -2.32 ± 0.13 | -2.41 ± 0.21 |
| CACCAGCAAUAUUACGCGAU | -2.55 ± 0.14 | -2.61 ± 0.21 |
| GCUAAGCAAUAUUACGUGUA | -1.29 ± 0.087 | -0.0918 ± 0.088 |
| AGCUAGCAAUAUUACGAAUA | -3.3 ± 0.27 | -2.35 ± 0.24 |
| GACCAGCAAUAUUACGUGUG | -0.363 ± 0.047 | -0.452 ± 0.058 |
| CAGGAGCAAUAUUACGCUGA | -4.15 ± 0.23 | -3.13 ± 0.2 |
| GUACAGCAAUAUUACGCUGA | -2.47 ± 0.12 | -1.33 ± 0.1 |
| GAACAGCAAUAUUACGGGUC | -2.3 ± 0.19 | -3 ± 0.27 |
| GUAGAGCAAUAUUACGAGCU | -2.67 ± 0.22 | -1.66 ± 0.23 |
